These results are taken from patent US20220340666A1 (NEW YORK UNIVERSITY, published 2022).

First the molecules themselves.
B1: G9.1-8m10 Fab (Fab, V domains shown)
VH: EVQLVESGGGLVQPGGSLRLSCAASGFTVSSSSIHWVRQAPGKGLEWVAYIYPYSGYTSYADSVKGRFTISADTSKNTAYLQMNSLRAEDTAVYYCARYSTYSKWVWGMDYWGQGTLVTVSS
VL: DIQMTQSPSSLSASVGDRVTITCRASQSVSSAVAWYQQKPGKAPKLLIYSASSLYSGVPSRFSGSRSGTDFTLTISSLQPEDFATYYCQQSYYDSNPITFGQGTKVEIKR
notes: Purified Fab; also called G9.1-8mut10
B2: G9.1-8m8 mIgG2a (antibody, V domains shown)
VH: EVQLVESGGGLVQPGGSLRLSCAASGFTVSSSSIHWVRQAPGKGLEWVAYIYPYSGYTSYADSVKGRFTISADTSKNTAYLQMNSLRAEDTAVYYCARYSTYSSSKWVWGMDYWGQGTLVTVSS
VL: DIQMTQSPSSLSASVGDRVTITCRASQSVSSAVAWYQQKPGKAPKLLIYSASSLYSGVPSRFSGSRSGTDFTLTISSLQPEDFATYYCQQSYYDSNPITFGQGTKVEIKR
notes: also called G9.1-8mut8
B3: G9.1-8m6 Fab (Fab, V domains shown)
VH: EVQLVESGGGLVQPGGSLRLSCAASGFTVSSSSIHWVRQAPGKGLEWVAYIYPYSGYTSYADSVKGRFTISADTSKNTAYLQMNSLRAEDTAVYYCARYSTYSSSSSKWVWGMDYWGQGTLVTVSS
VL: DIQMTQSPSSLSASVGDRVTITCRASQSVSSAVAWYQQKPGKAPKLLIYSASSLYSGVPSRFSGSRSGTDFTLTISSLQPEDFATYYCQQSYYDSNPITFGQGTKVEIKR
notes: Purified Fab; also called G9.1-8mut6
B4: G9.1-8m9 mIgG2a (antibody, V domains shown)
VH: EVQLVESGGGLVQPGGSLRLSCAASGFTVSSSSIHWVRQAPGKGLEWVAYIYPYSGYTSYADSVKGRFTISADTSKNTAYLQMNSLRAEDTAVYYCARYSTYSSKWVWGMDYWGQGTLVTVSS
VL: DIQMTQSPSSLSASVGDRVTITCRASQSVSSAVAWYQQKPGKAPKLLIYSASSLYSGVPSRFSGSRSGTDFTLTISSLQPEDFATYYCQQSYYDSNPITFGQGTKVEIKR
notes: also called G9.1-8mut9
B5: G9.1-8m8 Fab (Fab, V domains shown)
VH: EVQLVESGGGLVQPGGSLRLSCAASGFTVSSSSIHWVRQAPGKGLEWVAYIYPYSGYTSYADSVKGRFTISADTSKNTAYLQMNSLRAEDTAVYYCARYSTYSSSKWVWGMDYWGQGTLVTVSS
VL: DIQMTQSPSSLSASVGDRVTITCRASQSVSSAVAWYQQKPGKAPKLLIYSASSLYSGVPSRFSGSRSGTDFTLTISSLQPEDFATYYCQQSYYDSNPITFGQGTKVEIKR
notes: Purified Fab; also called G9.1-8mut8
B6: G9.1-8m7 Fab (Fab, V domains shown)
VH: EVQLVESGGGLVQPGGSLRLSCAASGFTVSSSSIHWVRQAPGKGLEWVAYIYPYSGYTSYADSVKGRFTISADTSKNTAYLQMNSLRAEDTAVYYCARYSTYSSSSKWVWGMDYWGQGTLVTVSS
VL: DIQMTQSPSSLSASVGDRVTITCRASQSVSSAVAWYQQKPGKAPKLLIYSASSLYSGVPSRFSGSRSGTDFTLTISSLQPEDFATYYCQQSYYDSNPITFGQGTKVEIKR
notes: Purified Fab; also called G9.1-8mut7
B7: G9.1-8m11 mIgG2a (antibody, V domains shown)
VH: EVQLVESGGGLVQPGGSLRLSCAASGFTVSSSSIHWVRQAPGKGLEWVAYIYPYSGYTSYADSVKGRFTISADTSKNTAYLQMNSLRAEDTAVYYCARYSTYKWVWGMDYWGQGTLVTVSS
VL: DIQMTQSPSSLSASVGDRVTITCRASQSVSSAVAWYQQKPGKAPKLLIYSASSLYSGVPSRFSGSRSGTDFTLTISSLQPEDFATYYCQQSYYDSNPITFGQGTKVEIKR
notes: also called G9.1-8mut11
B8: G9.1-8m11 Fab (Fab, V domains shown)
VH: EVQLVESGGGLVQPGGSLRLSCAASGFTVSSSSIHWVRQAPGKGLEWVAYIYPYSGYTSYADSVKGRFTISADTSKNTAYLQMNSLRAEDTAVYYCARYSTYKWVWGMDYWGQGTLVTVSS
VL: DIQMTQSPSSLSASVGDRVTITCRASQSVSSAVAWYQQKPGKAPKLLIYSASSLYSGVPSRFSGSRSGTDFTLTISSLQPEDFATYYCQQSYYDSNPITFGQGTKVEIKR
notes: Purified Fab; also called G9.1-8mut11
B9: G9.1-8m9 Fab (Fab, V domains shown)
VH: EVQLVESGGGLVQPGGSLRLSCAASGFTVSSSSIHWVRQAPGKGLEWVAYIYPYSGYTSYADSVKGRFTISADTSKNTAYLQMNSLRAEDTAVYYCARYSTYSSKWVWGMDYWGQGTLVTVSS
VL: DIQMTQSPSSLSASVGDRVTITCRASQSVSSAVAWYQQKPGKAPKLLIYSASSLYSGVPSRFSGSRSGTDFTLTISSLQPEDFATYYCQQSYYDSNPITFGQGTKVEIKR
notes: Purified Fab; also called G9.1-8mut9
B10: G9.1-8m4 mIgG1 (antibody, V domains shown)
VH: EVQLVESGGGLVQPGGSLRLSCAASGFTVSSSSIHWVRQAPGKGLEWVAYIYPYSGYTSYADSVKGRFTISADTSKNTAYLQMNSLRAEDTAVYYCARYSTYSSSSSSKWVWGMDYWGQGTLVTVSS
VL: DIQMTQSPSSLSASVGDRVTITCRASQSVSSAVAWYQQKPGKAPKLLIYSASSLYSGVPSRFSGSRSGTDFTLTISSLQPEDFATYYCQQSYYDSNPITFGQGTKVEIKR
notes: Human/mouse hybrid IgG: CH1 and CL human, Fc mouse IgG1; also called G9.1-8mut4
B11: G9.1-8m5 mIgG1 (antibody, V domains shown)
VH: EVQLVESGGGLVQPGGSLRLSCAASGFTVSSSSIHWVRQAPGKGLEWVAYIYPYSGYTSYADSVKGRFTISADTSKNTAYLQMNSLRAEDTAVYYCARYSTYSWGGIGSSSSSMDYWGQGTLVTVSS
VL: DIQMTQSPSSLSASVGDRVTITCRASQSVSSAVAWYQQKPGKAPKLLIYSASSLYSGVPSRFSGSRSGTDFTLTISSLQPEDFATYYCQQSYYDSNPITFGQGTKVEIKR
notes: Human/mouse hybrid IgG: CH1 and CL human, Fc mouse IgG1; also called G9.1-8mut5
B12: G9.1-8m3 mIgG1 (antibody, V domains shown)
VH: EVQLVESGGGLVQPGGSLRLSCAASGFTVSSSSIHWVRQAPGKGLEWVAYIYPYSGYTSYADSVKGRFTISADTSKNTAYLQMNSLRAEDTAVYYCARSSSSSWGGIGKWVWGMDYWGQGTLVTVSS
VL: DIQMTQSPSSLSASVGDRVTITCRASQSVSSAVAWYQQKPGKAPKLLIYSASSLYSGVPSRFSGSRSGTDFTLTISSLQPEDFATYYCQQSYYDSNPITFGQGTKVEIKR
notes: Human/mouse hybrid IgG: CH1 and CL human, Fc mouse IgG1; also called G9.1-8mut3
B13: G9.1-8m2 mIgG1 (antibody, V domains shown)
VH: EVQLVESGGGLVQPGGSLRLSCAASGFTVSSSSIHWVRQAPGKGLEWVAYIYPYSSSSSYADSVKGRFTISADTSKNTAYLQMNSLRAEDTAVYYCARYSTYSWGGIGKWVWGMDYWGQGTLVTVSS
VL: DIQMTQSPSSLSASVGDRVTITCRASQSVSSAVAWYQQKPGKAPKLLIYSASSLYSGVPSRFSGSRSGTDFTLTISSLQPEDFATYYCQQSYYDSNPITFGQGTKVEIKR
notes: Human/mouse hybrid IgG: CH1 and CL human, Fc mouse IgG1; also called G9.1-8mut2
B14: G9.1-8m1 mIgG1 (antibody, V domains shown)
VH: EVQLVESGGGLVQPGGSLRLSCAASGFTVSSSSIHWVRQAPGKGLEWVASSSSSSGYTSYADSVKGRFTISADTSKNTAYLQMNSLRAEDTAVYYCARYSTYSWGGIGKWVWGMDYWGQGTLVTVSS
VL: DIQMTQSPSSLSASVGDRVTITCRASQSVSSAVAWYQQKPGKAPKLLIYSASSLYSGVPSRFSGSRSGTDFTLTISSLQPEDFATYYCQQSYYDSNPITFGQGTKVEIKR
notes: Human/mouse hybrid IgG: CH1 and CL human, Fc mouse IgG1; also called G9.1-8mut1
B15: G9.1-1 Fab (Fab, V domains shown)
VH: EVQLVESGGGLVQPGGSLRLSCAASGFTFSSSSIHWVRQAPGKGLEWVASIYSSYGYTYYADSVKGRFTISADTSKNTAYLQMNSLRAEDTAVYYCARYYWGWSQNQGFWWYGLDYWGQGTLVTVSS
VL: DIQMTQSPSSLSASVGDRVTITCRASQSVSSAVAWYQQKPGKAPKLLIYSASSLYSGVPSRFSGSRSGTDFTLTISSLQPEDFATYYCQQSWVGSLITFGQGTKVEIKR
B16: G9.1-10 Fab (Fab, V domains shown)
VH: EVQLVESGGGLVQPGGSLRLSCAASGFTVSYSSIHWVRQAPGKGLEWVASIYSYYGSTYYADSVKGRFTISADTSKNTAYLQMNSLRAEDTAVYYCARGHYQEGRKSGFSYWSPALDYWGQGTLVTVSS
VL: DIQMTQSPSSLSASVGDRVTITCRASQSVSSAVAWYQQKPGKAPKLLIYSASSLYSGVPSRFSGSRSGTDFTLTISSLQPEDFATYYCQQWYWYYPVTFGQGTKVEIKR
B17: G9.1-11 Fab (Fab, V domains shown)
VH: EVQLVESGGGLVQPGGSLRLSCAASGFTVYSSSIHWVRQAPGKGLEWVASIYSYYGYTSYADSVKGRFTISADTSKNTAYLQMNSLRAEDTAVYYCARSTEGYDRWGYYSSYWSSGLDYWGQGTLVTVSS
VL: DIQMTQSPSSLSASVGDRVTITCRASQSVSSAVAWYQQKPGKAPKLLIYSASSLYSGVPSRFSGSRSGTDFTLTISSLQPEDFATYYCQQTYWGLITFGQGTKVEIKR
notes: Avitag at the C-terminus of the heavy chain, biotinylated when required
B18: G9.1-2 Fab (Fab, V domains shown)
VH: EVQLVESGGGLVQPGGSLRLSCAASGFTISSSSIHWVRQAPGKGLEWVASISSYYGSTYYADSVKGRFTISADTSKNTAYLQMNSLRAEDTAVYYCARSWSSSFWYNWALDYWGQGTLVTVSS
VL: DIQMTQSPSSLSASVGDRVTITCRASQSVSSAVAWYQQKPGKAPKLLIYSASSLYSGVPSRFSGSRSGTDFTLTISSLQPEDFATYYCQQWQWGYSLVTFGQGTKVEIKR
B19: G9.1-3 Fab (Fab, V domains shown)
VH: EVQLVESGGGLVQPGGSLRLSCAASGFTIYSSSIHWVRQAPGKGLEWVAYIYSSSGYTSYADSVKGRFTISADTSKNTAYLQMNSLRAEDTAVYYCARYSHSSLYYSWIWALDYWGQGTLVTVSS
VL: DIQMTQSPSSLSASVGDRVTITCRASQSVSSAVAWYQQKPGKAPKLLIYSASSLYSGVPSRFSGSRSGTDFTLTISSLQPEDFATYYCQQSWYSNKPITFGQGTKVEIKR

T1 sequence (O00182 1-148): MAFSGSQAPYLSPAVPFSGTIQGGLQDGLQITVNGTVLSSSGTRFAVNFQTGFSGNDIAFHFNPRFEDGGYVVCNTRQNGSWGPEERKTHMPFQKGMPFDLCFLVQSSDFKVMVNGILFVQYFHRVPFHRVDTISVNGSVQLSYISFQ

One experiment concerns the target T1, human Galectin-9 CRD1 (residues 1-148), biotinylated (human, UniProt O00182 1-148, biotinylated in vitro with BirA (Avitag)).
T1 construct: Made as GST fusion, GST cleaved off with thrombin, gel filtered, biotinylated; not shown: Avitag upstream of the cloned gene (pGEX vector), left after thrombin cleavage from GST
Kind of experiment: bead-based binding assay, flow cytometry. Here is the method:
The affinities of the antibodies were assessed using a bead-based assay as previously described (Nishikori et al., J Mol Biol, 2012, 424, 391-399) and surface plasmon resonance (SPR). In the bead-based assay, a biotinylated protein (either a Galectin-9 sample or a Fab sample) was immobilized on streptavidin-coated Dynabeads M280 via the biotin-streptavidin interaction. After blocking the excess biotin-binding sites on the beads using unconjugated biotin, binding titration was performed by incubating the second component (i.e., Fab for immobilized Galectin-9 or vice versa), followed by quantification using a dye-labeled neutravidin (ThermoFisher) and flow cytometry analysis. In experiments where the second component is an IgG, a dye-labeled anti-human IgG or anti-mouse IgG antibody was used for detection.
A general note: In flow cytometry, cells or beads pass a laser one at a time.
Usually Kd stands for the equilibrium constant for the complex coming apart. A low value points to a tighter complex. As for B1, the Kd came to 58.4 nM. On the same count and under the same terms, the result for B2 reads 0.51 nM; that for B3, 0.52 nM. The molecule B4 showed a Kd of 0.71 nM. In turn, B5 showed a Kd of 0.56 nM. Consider B6, for which binding was put at a Kd of 0.93 nM.

Molecule B7 gave a Kd of 1.46 nM. The same measure, in the same setting: the result for B8 reads 52.7 nM; that for B9, 1.57 nM; that for B10, 12 nM.

In the case of B11, the binding result is reported as “no binding”. For B12, the binding result was “no binding”.

B13 yielded a Kd of 6.51 nM.

Regarding B14, the binding result is on record as “no binding”.

The target in another experiment is T1, human Galectin-9 CRD1 (residues 1-148), …. Kind of experiment: phage ELISA, phage-displayed Fab on biotinylated CRD. On the technique in general: ELISA stands for enzyme-linked immunosorbent assay.
Regarding B15, the binding result is given as “binds”. Same read-out and setting: the result for B16 reads “binds”; that for B17, “binds”. With B18, the binding result is listed as “binds”. Take B19: the binding result is on record as “binds”.
